Test results from patent US9273342B2, “Methods and systems for evaluating and predicting the reactivity of monooxygenase enzymes” (University of Rochester, priority 2011, dated 2016).
Where a chain is given by its changes, count along the chain named. Where “and” joins values, the source holds several entries; their conditions need not be identical. Equal entries are not always repeated.

B1: FL#62: engineered variant of P450 monooxygenase CYP102A1, SEQ ID NO 15, parent of the libraries (protein)
chain: MTIKEMPQPKTFGELKNLPLLNTDKPVQALMKIADELGEIFKFEAPGRVTRYLSSQRLIKEACDESRFDKNLSQALKFARDSVGDGLATSWTHEKNWKKAHNILLPSFSQQAMKGYHAMMVDIAVQLVQKWERLNADEHIEVSEDMTRLTLDTIGLCGFNYRFNSFYRDQPHPFIISMVRTLDEVMNKLQRANPDDPVYDENKRQCQEDIKVMNDLVDKIIADRKARGEQSDDLLTQMLNGKDPETGEPLDDGNISYQIITFLIAGHETTSGLLSFALYFLVKNPHVLQKVAEEAARVLVDPVPSYKQVKQLKYVGMVLNEALRLWPTAPAFSLYAKEDTVLGGEYPLEKGDEVMVLIPQLHRDKTIWGDDVEEFRPERFENPSAIPQHAFKPFGNGQRACIGQQFALHEATLVLGMMLKHFDFEDHTNYELDIKETLTLKPEGFVVKAKSKKIPLGGIPSPSTEQSAKKVRKKAENAHNTPLLVLYGSNMGTAEGTARDLADIAMSKGFAPQVATLDSHAGNLPREGAVLIVTASYNGHPPDNAKQFVDWLDQASADEVKGVRYSVFGCGDKNWATTYQKVPAFIDETLAAKGAENIADRGEADASDDFEGTYEEWREHMWSDVAAYFNLDIENSEDNKSTLSLQFVDSAADMPLAKMHGAFSTNVVASKELQQPGSARSTRHLEIELPKEASYQEGDHLGVIPRNYEGIVNRVTARFGLDASQQIRLEAEEEKLAHLPLAKTVSVEELLQYVELQDPVTRTQLRAMAAKTVCPPHKVELEALLEKQAYKEQVLAKRLTMLELLEKYPACEMKFSEFIALLPSIRPRYYSISSSPRVDEKQASITVSVVSGEAWSGYGEYKGIASNYLAELQEGDTITCFISTPQSEFTLPKDPETPLIMVGPGTGVAPFRGFVQARKQLKEQGQSLGEAHLYFGCRSPHEDYLYQEELENAQSEGIITLHTAFSRMPNQPKTYVQHVMEQDGKKLIELLDQGAHFYICGDGSQMAPAVEATLMKSYADVHQVSEADARLWLQQLEEKGRYAKDVWAG
B2: FL#41: engineered CYP102A1 variant used as reference P450 for fingerprint normalization, SEQ ID NO 3 (protein)
chain: MTIKEMPQPKTFGELKNLPLLNTDKPVQALMKIADELGEIFKFEAPGRVTRYLSSQRLIKEACDESRFDKNLSQALKFVRDFAGDGLATSWTHEKNWKKAHNILLPSFSQQAMKGYHAMMVDIAVQLVQKWERLNADEHIEVPEDMTRLTLDTIGLCGFNYRFNSFYRDQPHPFITSMVRALDEAMNKLQRANPDDPAYDENKRQFQEDIKVMNDLVDKIIADRKASGEQSDDLLTHMLNGKDPETGEPLDDENIRYQIITFLIAGHETTSGLLSFALYFLVKNPHVLQKAAEEAARVLVDPVPSYKQVKQLKYVGMVLNEALRLWPTAPAFSLYAKEDTVLGGEYPLEKGDELMVLIPQLHRDKTIWGDDVEEFRPERFENPSAIPQHAFKPFGNGQRACIGQQFALHEATLVLGMMLKHFDFEDHTNYELDIKETLTLKPEGFVVKAKSKKIPLGGIPSPSTEQSAKKVRKKAENAHNTPLLVLYGSNMGTAEGTARDLADIAMSKGFAPQVATLDSHAGNLPREGAVLIVTASYNGHPPDNAKQFVDWLDQASADEVKGVRYSVFGCGDKNWATTYQKVPAFIDETLAAKGAENIADRGEADASDDFEGTYEEWREHMWSDVAAYFNLDIENSEDNKSTLSLQFVDSAADMPLAKMHGAFSTNVVASKELQQPGSARSTRHLEIELPKEASYQEGDHLGVIPRNYEGIVNRVTARFGLDASQQIRLEAEEEKLAHLPLAKTVSVEELLQYVELQDPVTRTQLRAMAAKTVCPPHKVELEALLEKQAYKEQVLAKRLTMLELLEKYPACEMKFSEFIALLPSIRPRYYSISSSPRVDEKQASITVSVVSGEAWSGYGEYKGIASNYLAELQEGDTITCFISTPQSEFTLPKDPETPLIMVGPGTGVAPFRGFVQARKQLKEQGQSLGEAHLYFGCRSPHEDYLYQEELENAQSEGIITLHTAFSRMPNQPKTYVQHVMEQDGKKLIELLDQGAHFYICGDGSQMAPAVEATLMKSYADVHQVSEADARLWLQQLEEKGRYAKDVWAG
B3: Wild-type CYP102A1: fatty acid hydroxylase CYP102A1 from Bacillus megaterium, SEQ ID NO 1 (protein, listed as Bacillus megaterium)
chain: B2 chain with A88F

Tests used:
Format in all cases: biochemical
[1] = Monooxygenase activity on artemisinin (ART), total turnovers by HPLC after benzoyl chloride derivatization; conditions: 0.5 mM ART, 1 μM P450 variant; mol hydroxylation products/mol enzyme
Text: Additional 5,000 FL#62-derived variants were produced by simultaneous active-site mutagenesis and subjected to high throughout fingerprinting as described in Example 2. From the acquired fingerprint data, 259 functionally diverse variants (i.e., with a unique fingerprint) were isolated according to the procedure described in Example 2 and combined with the previously isolated 261 variants (Example 2), to yield a collection of 520 functionally diverse, fingerprinted monooxygenases. […] The ART oxygenation activity of the training set P450s was characterized by LC-MS analysis of reactions with ART and each of these variants and quantified in terms of total turnovers (TTN). […] The fingerprints of the training set P450s (both ART-reactive and ART-unreactive) were then correlated with the measured ART activities (TTN values) by multiple linear regression (MLR) analysis, where ART activity is the dependent variable, Y, and the five components of their fingerprints (corresponding to the normalized activities on probes 1-5) are five independent variables (x1, x2, x3, x4, x5) potentially correlated with Y. This process yielded best-fit regression coefficients for the training set and a candidate fingerprint-based model (Y=0.44x1+0.52x2+0.44x3+0.72x4+0.47x5) predictive of ART-reactivity. […]

[2] = Regio- and stereoselectivity (site-selectivity) of ART hydroxylation, product distribution by HPLC
Text: Additional 5,000 FL#62-derived variants were produced by simultaneous active-site mutagenesis and subjected to high throughout fingerprinting as described in Example 2. From the acquired fingerprint data, 259 functionally diverse variants (i.e., with a unique fingerprint) were isolated according to the procedure described in Example 2 and combined with the previously isolated 261 variants (Example 2), to yield a collection of 520 functionally diverse, fingerprinted monooxygenases. From this pool, twenty monooxygenases were randomly isolated to serve as the training set for generating a fingerprint model predictive of ART-reactivity and ranking the members of the monooxygenase library according to this reactivity property, as schematically illustrated in FIG. 13. The ART oxygenation activity of the training set P450s was characterized by LC-MS analysis of reactions with ART and each of these variants and quantified in terms of total turnovers (TTN). […] The fingerprints of the training set P450s (both ART-reactive and ART-unreactive) were then correlated with the measured ART activities (TTN values) by multiple linear regression (MLR) analysis, where ART activity is the dependent variable, Y, and the five components of their fingerprints (corresponding to the normalized activities on probes 1-5) are five independent variables (x1, x2, x3, x4, x5) potentially correlated with Y. This process yielded best-fit regression coefficients for the training set and a candidate fingerprint-based model (Y=0.44x1+0.52x2+0.44x3+0.72x4+0.47x5) predictive of ART-reactivity. Using this model, the remaining P450s in the 520-member collection of fingerprinted P450s were ranked (from highest to lowest predicted ART-reactivity). The 50 top-ranking variants as well as the 20 bottom-ranking variants were then tested experimentally in order to validate the predictions.
Measurement of Monooxygenase Activity on Artemisinin (ART). These isolated ART hydroxylation products were used as standards to generate calibration curves for quantifying ART-hydroxylation activity of FL#62 and the other monooxygenases. This activity was measured as total turnovers via quantification of the hydroxylation products from enzymatic reactions via derivatization with benzoyl chloride followed by HPLC analysis. Briefly, after the enzymatic reaction (0.5 mM ART, 1 μM P450 variant (purified or in cell lysate); 2 μM […], 100 μM NADP^+, 50 mM phosphoric acid), the mixture was added with 9-fluorenone as internal standard (0.5 mM) and extracted with dicholoromethane (0.2 mL). After removing the solvent, the residue was added with 0.1 mL dichloromethane, benzoyl chloride (5 equiv.), and DMAP (10 equiv.) for 3 hours at room temperature. The derivatized products (benzoyl esters) were analyzed using an Agilent 1200 UPLC. Analytical condition: Agilent XDB-C18 column (1.8 um, 4.4×50 mm); UV wavelength: 230 nm; Solvent A: 1% trifluoroacetic acid in deionized H2O; Solvent B: 1% formic acid in acetonitrile. gradient condition: 0-1 min: 20% B; 1-8 mins: 20% B to 90% B; 8-10 mins: 90% B; […]: 90% B to 20% B; 10.3-11.3 min: 20% B. Flow rate: 0.8 mL/min. The area under the curve (AUC) corresponding to the ART hydroxylated products were normalized to the internal standard AUC and used to quantify these products using the calibration curves. Total turnover numbers were calculated from number of mol hydroxylation products/mol enzyme. […]

[3] = Fingerprinting: demethylation activity on methoxy probes 1-5, Purpald colorimetric assay; conditions: formaldehyde formation, FIG. 5A
Description: To test the viability of compounds I-5 as probes, the fatty acid hydroxylase CYP102A1 (SEQ ID NO 1) from Bacillus megaterium and […] engineered variants thereof (SEQ ID NO 3, SEQ ID NO 4, SEQ ID NO 5, SEQ ID NO 6, SEQ ID NO 8, SEQ ID NO 11, SEQ ID NO 12, SEQ ID NO 14, SEQ ID NO 15) were fingerprinted. […] Parallel reactions with 1-5 were carried out using these P450s in purified form and a NADPH cofactor regeneration system containing a […] (PTDH).
We investigated the utility of these probes for high-throughput profiling of a large library of engineered monooxygenase variants. […] The P450 libraries were expressed in 96-well plates (DH5a cells) and screened against probes 1-5 in parallel to acquire a fingerprint for each functional P450 variant occurring in these libraries. Reactions with the probes (1 mM, 60 min) were carried out using cell lysate in the presence of the phosphite/PTDH cofactor regeneration system, and probe activity was quantified based on absorbance at 550 nm after 60-min incubation with Purpald (30 mM). […] This example illustrates how probes of general formula II such as compound 1-5 could be used for fingerprinting a large library of monooxygenases in a high throughput manner.
Expression and Fingerprinting of P450 Libraries in 96-Well Plates. 96-deep well plates containing 400 μL LB medium (100 mg ampicillin L-1) per well were inoculated with single colonies from the P450 libraries. The total number of screened P450 variants was about 10,000. In each plate, 8 wells were inoculated with the parent enzyme FL#62. […] P450 demethylation activity on probe 1-5 was measured in parallel reactions with the aid of a Beckman Coulter Multimek 96 automated pipettor and a TECAN Infinity plate reader. […] After incubation for 1 hour at room temperature, plates were added with 50 μL 2 M NaOH containing 150 mM Purpald and the absorbance at 550 nm measured using the plate reader. The measured demethylation activity of each P450 variant on the five probes was then normalized to the activity of the parent enzyme FL#62 (SEQ ID NO 15) from the same plate. […]

Molecule	total turnovers (TTN) for ART hydroxylation [1]	selectivity for the desired site ((S)-C7 ART hydroxylation, regio- and stereoselectivity) [2] [%]	C6a-hydroxy-ART, share in product ratio C7(S):C7(R):C6a ([2]; ART hydroxylation products)	C7(R)-hydroxy-ART, share in product ratio C7(S):C7(R):C6a ([2]; ART hydroxylation products)	C7(S)-hydroxy-ART, share in product ratio C7(S):C7(R):C6a ([2]; ART hydroxylation products)	site-selectivity value for (S)-C7 ART hydroxylation ([2]; fraction used for the fingerprint-site reactivity correlation)	probe activity on probes 1-5 (in words) [3]
B1	340 TTN and 339 TTN	83	7	10	83	0.83	high activity on all the probes
B2	–	–	–	–	–	–	minimal yet detectable activity on all five probes
B3	–	–	–	–	–	–	no activity on three out of the five probes
